The target in the experiment is human FcRn fused to a His-tag and glutathione S transferase (FcRn-His-GST), complex of FcRn heavy chain with beta-2-microglobulin (human) (UniProt P55899). In words: AlphaScreen competition. In general terms: Alpha assays give light when donor and acceptor beads are brought close together.

In the case of K320H (antibody), the FcRn Binding ratio Variant / WT is 1.13. Turning to P228G (antibody), the FcRn Binding ratio Variant / WT amounted to 1.77. With G236V (antibody), the FcRn Binding ratio Variant / WT stood at 1.35. T260E (antibody): the FcRn Binding ratio Variant / WT turned out to be 5.49. For H224E (antibody), the FcRn Binding ratio Variant / WT is 5.11. As for G237L (antibody), the FcRn Binding ratio Variant / WT amounted to 5.91.

Take L328H/I332E (antibody): the FcRn Binding ratio Variant / WT came to 1.16. Regarding E269S (antibody), the FcRn Binding ratio Variant / WT was determined as 1.31. For the substance L328R (antibody), the FcRn Binding ratio Variant / WT is 1.82.

Turning to S324T (antibody), the FcRn Binding ratio Variant / WT was found to be 1.07. As to P227K (antibody), the FcRn Binding ratio Variant / WT is 1.45.

With E333M (antibody), the FcRn Binding ratio Variant / WT stood at 5.46. Next, S239E/V264I/A330Y/I332E (antibody): 2.36; E272R (antibody): 1.83. On to P331Y (antibody), for which the FcRn Binding ratio Variant / WT worked out at 6.06.

Turning to E272H (antibody), the FcRn Binding ratio Variant / WT came to 1.45. With R255E (antibody), the FcRn Binding ratio Variant / WT worked out at 1.16. Next, G236W (antibody): 1.52. On to F241W (antibody), for which the FcRn Binding ratio Variant / WT is 1.7. Turning to N276D (antibody), the FcRn Binding ratio Variant / WT worked out at 1.18. For T223E (antibody), the FcRn Binding ratio Variant / WT was 2.04. Take E233S (antibody): the FcRn Binding ratio Variant / WT was 1.1. With E272L (antibody), the FcRn Binding ratio Variant / WT was 1.81. In the case of Y278I (antibody), the FcRn Binding ratio Variant / WT is 1.52. The result for I332Y (antibody) reads 1.43; that for E233T (antibody), 1.19; that for P329K (antibody), 1.27. For T335V (antibody), the FcRn Binding ratio Variant / WT worked out at 1.25.

Consider G236N (antibody), for which the FcRn Binding ratio Variant / WT is 1.89. For E294I (antibody), the FcRn Binding ratio Variant / WT was found to be 1.09. In the case of D265G (antibody), the FcRn Binding ratio Variant / WT is 1.74.

As for E318R (antibody), the FcRn Binding ratio Variant / WT came to 1.17.

For the substance S239E/I332E (antibody), the FcRn Binding ratio Variant / WT was determined as 1.34.

As for V264A (antibody), the FcRn Binding ratio Variant / WT turned out to be 1.12.

Turning to V240T (antibody), the FcRn Binding ratio Variant / WT stood at 2.61.

As for N276L (antibody), the FcRn Binding ratio Variant / WT was 1.21. For the substance T225W (antibody), the FcRn Binding ratio Variant / WT turned out to be 6.89. As to P271I (antibody), the FcRn Binding ratio Variant / WT was determined as 1.99. Turning to K274T (antibody), the FcRn Binding ratio Variant / WT came out at 1.08. Next, S239V (antibody): 1.17; L234E (antibody): 1.25.

With V264N (antibody), the FcRn Binding ratio Variant / WT amounted to 3.39. Turning to L234D (antibody), the FcRn Binding ratio Variant / WT was 1.54. For the substance G236P (antibody), the FcRn Binding ratio Variant / WT is 1.41. Take L234N (antibody): the FcRn Binding ratio Variant / WT amounted to 1.06. Next, T260D (antibody): 1.71; Y278N (antibody): 1.33. As to E269F (antibody), the FcRn Binding ratio Variant / WT was 1.51. For the substance I336E (antibody), the FcRn Binding ratio Variant / WT was found to be 8.11.

With N276H (antibody), the FcRn Binding ratio Variant / WT came out at 1.19. S239L (antibody): the FcRn Binding ratio Variant / WT amounted to 4.6.

Consider S239D/E272Y/I332E (antibody), for which the FcRn Binding ratio Variant / WT came to 1.31. With H285K (antibody), the FcRn Binding ratio Variant / WT is 1.76.

E283Y (antibody): the FcRn Binding ratio Variant / WT is 1.42. On to P291H (antibody), for which the FcRn Binding ratio Variant / WT is 2.56. Turning to S239Q/I332E (antibody), the FcRn Binding ratio Variant / WT amounted to 1.33.

Consider G237R (antibody), for which the FcRn Binding ratio Variant / WT came to 1.36. Regarding E272W (antibody), the FcRn Binding ratio Variant / WT worked out at 1.82. Next, K274F (antibody): 1.02; L328Q/I332E (antibody): 4.29; Q295V (antibody): 1.19. Regarding V240M (antibody), the FcRn Binding ratio Variant / WT is 2.5. On to V282G (antibody), for which the FcRn Binding ratio Variant / WT stood at 1.16.

Take Y278R (antibody): the FcRn Binding ratio Variant / WT was determined as 1.23.

In the case of P238H (antibody), the FcRn Binding ratio Variant / WT was 1.46.

In the case of Y300M (antibody), the FcRn Binding ratio Variant / WT was determined as 1.1. Turning to G237W (antibody), the FcRn Binding ratio Variant / WT was determined as 1.2.

On to A330L/I332E (antibody), for which the FcRn Binding ratio Variant / WT was found to be 1.5. For the substance L235Y (antibody), the FcRn Binding ratio Variant / WT was 1.02. For the substance S239Q/I332Q (antibody), the FcRn Binding ratio Variant / WT came to 1.04. The result for H285Q (antibody) reads 1.38. For the substance A330V (antibody), the FcRn Binding ratio Variant / WT worked out at 1.78.

In the case of Y300K (antibody), the FcRn Binding ratio Variant / WT came to 1.01. The result for A327M (antibody) reads 1.08.

In the case of P291I (antibody), the FcRn Binding ratio Variant / WT stood at 1.15. Regarding K274G (antibody), the FcRn Binding ratio Variant / WT came out at 1.04.

G237D (antibody): the FcRn Binding ratio Variant / WT is 1.84. The result for R292D (antibody) reads 1.67. Take V264S (antibody): the FcRn Binding ratio Variant / WT was 5.13. Next, G236F (antibody): 1.75; Y278L (antibody): 1.74.

As for P238E (antibody), the FcRn Binding ratio Variant / WT was determined as 3.71. Take K320W (antibody): the FcRn Binding ratio Variant / WT turned out to be 1.11.

On to G237Q (antibody), for which the FcRn Binding ratio Variant / WT was 1.39. As to I332T (antibody), the FcRn Binding ratio Variant / WT is 1.02. As to L328N/I332E (antibody), the FcRn Binding ratio Variant / WT is 1.18.

Regarding D249Y (antibody), the FcRn Binding ratio Variant / WT is 2.57. For the substance L235T (antibody), the FcRn Binding ratio Variant / WT stood at 1.65. For L234V (antibody), the FcRn Binding ratio Variant / WT was 1.45. V282Y (antibody): the FcRn Binding ratio Variant / WT is 1.92.

For the substance P238G (antibody), the FcRn Binding ratio Variant / WT amounted to 1.53.

In the case of S298H (antibody), the FcRn Binding ratio Variant / WT came out at 3.99.

As to F243L/V262I/V264W (antibody), the FcRn Binding ratio Variant / WT was determined as 1.35. For S239D/K326T/I332E (antibody), the FcRn Binding ratio Variant / WT was found to be 2.22.

Turning to D265P (antibody), the FcRn Binding ratio Variant / WT was 1.18. On to E272P (antibody), for which the FcRn Binding ratio Variant / WT was found to be 2.17. Regarding Y278M (antibody), the FcRn Binding ratio Variant / WT worked out at 1.28. Take V303Y (antibody): the FcRn Binding ratio Variant / WT was 1.15. R292Y (antibody): the FcRn Binding ratio Variant / WT worked out at 1.36.

Take G236K (antibody): the FcRn Binding ratio Variant / WT worked out at 1.38.

With E318Y (antibody), the FcRn Binding ratio Variant / WT turned out to be 6.14. Regarding G237N (antibody), the FcRn Binding ratio Variant / WT amounted to 1.39.

Consider N325F (antibody), for which the FcRn Binding ratio Variant / WT amounted to 1.22. For the substance N325M (antibody), the FcRn Binding ratio Variant / WT came out at 1.43. The result for T299W (antibody) reads 1.09; that for L234Y (antibody), 1.9; that for A330G (antibody), 1.01. For T335F (antibody), the FcRn Binding ratio Variant / WT turned out to be 1.19. In the case of E283K (antibody), the FcRn Binding ratio Variant / WT is 2.74. For Y296L (antibody), the FcRn Binding ratio Variant / WT stood at 2.78.

On to H285E (antibody), for which the FcRn Binding ratio Variant / WT stood at 1.93.

E272Y (antibody): the FcRn Binding ratio Variant / WT worked out at 2.08.

On to D221Y (antibody), for which the FcRn Binding ratio Variant / WT was determined as 2.74. Consider S239D/E272I/I332E (antibody), for which the FcRn Binding ratio Variant / WT turned out to be 1.81. Turning to D249Q (antibody), the FcRn Binding ratio Variant / WT turned out to be 2.06. With E272I (antibody), the FcRn Binding ratio Variant / WT amounted to 1.05. Regarding T335W (antibody), the FcRn Binding ratio Variant / WT was 1.35. As for P271T (antibody), the FcRn Binding ratio Variant / WT was determined as 3.88. For the substance I332V (antibody), the FcRn Binding ratio Variant / WT was 59.3. On to P228K (antibody), for which the FcRn Binding ratio Variant / WT came to 1.55. Regarding F241E (antibody), the FcRn Binding ratio Variant / WT is 1.09. Consider N276W (antibody), for which the FcRn Binding ratio Variant / WT was 2. For H285Y (antibody), the FcRn Binding ratio Variant / WT was determined as 1.25.

For the substance V264I/A330L/I332E (antibody), the FcRn Binding ratio Variant / WT turned out to be 1.13. The result for T260Y (antibody) reads 7.51; that for E283R (antibody), 1.86; that for S324G (antibody), 2.74. Turning to E272V (antibody), the FcRn Binding ratio Variant / WT was 1.77. On to N276R (antibody), for which the FcRn Binding ratio Variant / WT was determined as 1.19. In the case of A327L (antibody), the FcRn Binding ratio Variant / WT stood at 1.55. The result for V302I (antibody) reads 2.44; that for G237M (antibody), 73.4; that for V282K (antibody), 1.44.

Take G236T (antibody): the FcRn Binding ratio Variant / WT worked out at 1.56.

In the case of F241Y/F243Y/V262T/V264T (antibody), the FcRn Binding ratio Variant / WT was determined as 1.89. The result for T299F (antibody) reads 1.86; that for L234R (antibody), 1.19.

For the origin of these results see US20090041770A1.
